Reference: patent US20170158755A1 (PROTHENA BIOSCIENCES, published 2017)
Numbering of substitutions follows the chain as printed.

B1: humanized 19C12 antibody H2L3 (antibody, V domains shown)
VH: QVQLQQSGAELVKPGASVKVSCKASGYAFSTYWMNWVRQAPGQGLEWIGQIYPGDGDTNYNGKFKGRVTITADKSTSTAYMELSSLRSEDTAVYFCARSDGYYDYWGQGTTVTVSS
VL: NIVLTQSPASLAVSLGERATISCRASESVDSYGTSFMHWYQQKPGQPPKLLICLASSLESGVPARFSGSGSRTDFTLTIDPVEAEDAATYYCQQNNEDPPTFGAGTKLEIKR
notes: Intact humanized IgG (human Fc); also called VHv2/VLv3; Hu19C12 H2L3
B2: humanized 19C12 antibody H2L6 (antibody, V domains shown)
VH: B1 VH
VL: B1 VL with N1D, C53S, R72G, D80S
notes: Intact humanized IgG (human Fc); also called VHv2/VLv6
B3: humanized 19C12 antibody H3L6 (antibody, V domains shown)
VH: B1 VH with Q1E
VL: B1 VL with N1D, C53S, R72G, D80S
notes: Intact humanized IgG (human Fc); also called VHv3/VLv6
B4: humanized 19C12 antibody H2L4 (antibody, V domains shown)
VH: B1 VH
VL: B1 VL with C53S, R72G, D80S
notes: Intact humanized IgG (human Fc); also called VHv2/VLv4
B5: mouse monoclonal antibody 5B5 (antibody, V domains shown)
VH: QVQLQQPGAELVKPGASVKLSCKASGYTFTSYWMHWVKQRPGRGLEWIGRIDPNSGGTKHNEKFKSKATLTVDKPSSTAYMQLSSLTSEDSAVYYCAGSPSYYDYALHYAMDYWGQGTSVTVSS
VL: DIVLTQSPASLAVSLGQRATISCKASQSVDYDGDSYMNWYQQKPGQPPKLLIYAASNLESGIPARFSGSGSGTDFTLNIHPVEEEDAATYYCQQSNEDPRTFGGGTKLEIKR

Key:
[1] = biological target: T1, mouse LAMA4 in mouse tissue (mouse, UniProt P97927 25-1816); experiment: staining of WT versus LAMA4.KO mouse brain cryosections, anti-human-594 secondary
T1 construct: Native protein in tissue sections, there part of laminin trimers; also called LAMA4-positive mouse tissue; LAMA4-positive mouse brain vasculature
T1 sequence (P97927 25-1816 limits assumed): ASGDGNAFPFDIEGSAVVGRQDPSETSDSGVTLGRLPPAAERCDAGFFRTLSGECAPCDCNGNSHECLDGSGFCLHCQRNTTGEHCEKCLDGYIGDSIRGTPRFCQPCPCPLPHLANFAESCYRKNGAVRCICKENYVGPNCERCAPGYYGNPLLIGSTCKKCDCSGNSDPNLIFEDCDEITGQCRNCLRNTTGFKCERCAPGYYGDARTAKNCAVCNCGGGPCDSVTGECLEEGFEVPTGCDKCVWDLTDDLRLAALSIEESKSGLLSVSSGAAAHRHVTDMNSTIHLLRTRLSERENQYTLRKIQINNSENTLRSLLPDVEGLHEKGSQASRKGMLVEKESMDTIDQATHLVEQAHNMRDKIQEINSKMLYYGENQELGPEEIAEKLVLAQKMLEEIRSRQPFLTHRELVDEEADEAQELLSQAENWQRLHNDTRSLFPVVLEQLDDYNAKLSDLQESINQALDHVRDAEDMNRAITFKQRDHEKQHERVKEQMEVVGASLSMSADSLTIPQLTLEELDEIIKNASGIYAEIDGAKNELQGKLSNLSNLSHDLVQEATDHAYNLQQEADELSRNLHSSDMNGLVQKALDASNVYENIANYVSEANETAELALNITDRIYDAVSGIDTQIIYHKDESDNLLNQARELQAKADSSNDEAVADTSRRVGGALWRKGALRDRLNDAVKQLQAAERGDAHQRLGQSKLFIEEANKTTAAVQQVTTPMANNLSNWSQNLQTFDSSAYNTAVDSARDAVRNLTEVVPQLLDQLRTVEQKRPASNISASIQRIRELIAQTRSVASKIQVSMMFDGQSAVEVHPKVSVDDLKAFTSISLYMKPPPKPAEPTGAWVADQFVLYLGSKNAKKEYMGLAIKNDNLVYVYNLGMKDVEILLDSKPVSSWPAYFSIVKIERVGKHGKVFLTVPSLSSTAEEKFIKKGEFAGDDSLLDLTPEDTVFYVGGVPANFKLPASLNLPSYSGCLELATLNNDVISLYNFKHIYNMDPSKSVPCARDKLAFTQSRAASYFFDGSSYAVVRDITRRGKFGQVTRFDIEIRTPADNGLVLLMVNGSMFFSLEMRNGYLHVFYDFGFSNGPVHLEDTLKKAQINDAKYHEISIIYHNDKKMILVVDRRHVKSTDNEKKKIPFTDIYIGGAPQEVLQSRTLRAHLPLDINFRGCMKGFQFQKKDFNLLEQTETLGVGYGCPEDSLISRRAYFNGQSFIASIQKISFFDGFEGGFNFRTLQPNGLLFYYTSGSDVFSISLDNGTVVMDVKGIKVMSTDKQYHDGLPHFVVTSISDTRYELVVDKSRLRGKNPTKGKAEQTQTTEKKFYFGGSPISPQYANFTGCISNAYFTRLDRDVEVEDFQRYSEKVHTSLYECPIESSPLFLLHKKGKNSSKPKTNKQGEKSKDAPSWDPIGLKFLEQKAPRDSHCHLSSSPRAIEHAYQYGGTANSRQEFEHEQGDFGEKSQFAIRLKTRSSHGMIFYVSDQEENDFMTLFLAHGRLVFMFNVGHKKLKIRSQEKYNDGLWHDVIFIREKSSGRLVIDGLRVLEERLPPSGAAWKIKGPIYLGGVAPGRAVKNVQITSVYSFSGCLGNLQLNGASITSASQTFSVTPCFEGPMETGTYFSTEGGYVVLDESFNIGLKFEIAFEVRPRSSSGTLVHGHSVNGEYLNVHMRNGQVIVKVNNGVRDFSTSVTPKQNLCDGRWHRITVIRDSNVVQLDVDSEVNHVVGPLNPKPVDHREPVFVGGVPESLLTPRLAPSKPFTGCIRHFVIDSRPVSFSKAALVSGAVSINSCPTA
From the text: The specific binding between the 19C12 humanized variants (19C12 chi, H2L3, H2L4, H2L6, H3L6 and isotype control) and LAMA4 was further tested by assessing the variants' ability to stain wild-type vs. LAMA4.KO mouse brains. Humanized monoclonal antibodies against LAMA4 were generated as described in the Materials and Methods. Perfused and fresh frozen WT and LAMA4.KO mouse brains were cryosectioned, acetone-fixed, and stained with LAMA4 primary antibody followed by anti-human-594 secondary antibodies.

[2] = biological target: T2, human LAMA4 G domain (LG1-5) displayed on 293 cells (human, UniProt Q16363 830-1821); experiment: flow cytometry on LAMA4-displaying 293 cells, anti-human-650 secondary antibody; MFI
T2 construct: the vector's tags and membrane anchor are not written here; also called LAMA4-displaying human 293 cells; full length
T2 sequence: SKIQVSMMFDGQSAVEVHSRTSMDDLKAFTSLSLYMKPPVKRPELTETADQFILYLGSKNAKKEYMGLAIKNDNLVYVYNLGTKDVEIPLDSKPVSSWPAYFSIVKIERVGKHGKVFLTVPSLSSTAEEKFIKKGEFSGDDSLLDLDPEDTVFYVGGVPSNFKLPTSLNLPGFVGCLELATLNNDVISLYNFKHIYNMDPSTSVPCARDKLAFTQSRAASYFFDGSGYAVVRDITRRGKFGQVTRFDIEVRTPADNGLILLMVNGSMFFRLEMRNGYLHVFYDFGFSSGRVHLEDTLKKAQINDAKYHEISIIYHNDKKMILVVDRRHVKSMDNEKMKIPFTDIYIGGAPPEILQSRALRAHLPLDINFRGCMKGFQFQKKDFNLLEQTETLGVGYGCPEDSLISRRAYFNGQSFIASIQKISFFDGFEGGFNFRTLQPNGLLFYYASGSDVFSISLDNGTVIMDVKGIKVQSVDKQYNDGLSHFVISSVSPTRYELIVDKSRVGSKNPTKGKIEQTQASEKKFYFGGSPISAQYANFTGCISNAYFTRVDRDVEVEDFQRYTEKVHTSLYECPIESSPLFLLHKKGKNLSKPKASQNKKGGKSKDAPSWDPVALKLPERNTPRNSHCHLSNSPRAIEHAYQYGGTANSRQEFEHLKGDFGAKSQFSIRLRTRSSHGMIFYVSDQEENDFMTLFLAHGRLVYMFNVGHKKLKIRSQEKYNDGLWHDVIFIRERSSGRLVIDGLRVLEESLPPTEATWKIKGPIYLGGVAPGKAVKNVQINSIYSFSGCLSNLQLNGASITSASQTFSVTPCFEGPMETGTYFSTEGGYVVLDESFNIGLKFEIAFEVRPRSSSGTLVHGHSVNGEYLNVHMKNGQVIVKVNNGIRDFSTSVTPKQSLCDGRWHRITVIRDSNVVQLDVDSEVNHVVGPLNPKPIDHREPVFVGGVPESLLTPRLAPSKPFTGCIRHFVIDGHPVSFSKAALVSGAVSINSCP
Protocol: (§1) The 19C12 variants chimeric 19C12, H2L3, H2L4, H2L6, H3L6, and isotype control were tested for their ability to block the binding of LAMA4 to its ligand MCAM (FIG. 15) and to bind LAMA4-displaying cells (FIG. 16). To test LAMA4 binding capacity, serially diluted antibodies were pre-incubated with LAMA4-displaying human 293 cells, followed by anti-human-650 secondary antibody incubation. […] Fluorescent signal was assessed via flow cytometric analyses and plotted as mean fluorescence intensity (MFI). All 19C12 variants retained their MCAM blocking and LAMA4 binding activity when compared with chimeric 19C12.

recombinant laminin 411 = biological target: T3, recombinant laminin 411 (human, UniProt P07942 22-1786; P11047 34-1609, limits assumed); experiment: flow cytometric blocking assay; antibody pre-incubated with 650-labeled laminin 411; blocked partner: human MCAM on CHO cells; MFI
T3 construct: also called LAMA4 in complex with its gamma1 and beta1 chains
Protocol: as §1
Following two washes with FACS buffer (1% FBS in PBS), cells were resuspended with 650-conjugated anti-pan-laminin antibody (1:1000; Novus Biologicals) and incubated for 20 min at 4° C., and washed again. Cells were analyzed for pan-laminin reactivity by flow cytometry using standard procedures.

mouse His-laminin-α4 = biological target: T4, mouse His-laminin-α4 (mouse, UniProt P97927 826-1816, limits assumed); experiment: Biacore SPR
T4 construct: Bought His-tagged recombinant protein; also called Murine LAMA4; recombinant mouse LAMA4-His
T4 sequence (looked up): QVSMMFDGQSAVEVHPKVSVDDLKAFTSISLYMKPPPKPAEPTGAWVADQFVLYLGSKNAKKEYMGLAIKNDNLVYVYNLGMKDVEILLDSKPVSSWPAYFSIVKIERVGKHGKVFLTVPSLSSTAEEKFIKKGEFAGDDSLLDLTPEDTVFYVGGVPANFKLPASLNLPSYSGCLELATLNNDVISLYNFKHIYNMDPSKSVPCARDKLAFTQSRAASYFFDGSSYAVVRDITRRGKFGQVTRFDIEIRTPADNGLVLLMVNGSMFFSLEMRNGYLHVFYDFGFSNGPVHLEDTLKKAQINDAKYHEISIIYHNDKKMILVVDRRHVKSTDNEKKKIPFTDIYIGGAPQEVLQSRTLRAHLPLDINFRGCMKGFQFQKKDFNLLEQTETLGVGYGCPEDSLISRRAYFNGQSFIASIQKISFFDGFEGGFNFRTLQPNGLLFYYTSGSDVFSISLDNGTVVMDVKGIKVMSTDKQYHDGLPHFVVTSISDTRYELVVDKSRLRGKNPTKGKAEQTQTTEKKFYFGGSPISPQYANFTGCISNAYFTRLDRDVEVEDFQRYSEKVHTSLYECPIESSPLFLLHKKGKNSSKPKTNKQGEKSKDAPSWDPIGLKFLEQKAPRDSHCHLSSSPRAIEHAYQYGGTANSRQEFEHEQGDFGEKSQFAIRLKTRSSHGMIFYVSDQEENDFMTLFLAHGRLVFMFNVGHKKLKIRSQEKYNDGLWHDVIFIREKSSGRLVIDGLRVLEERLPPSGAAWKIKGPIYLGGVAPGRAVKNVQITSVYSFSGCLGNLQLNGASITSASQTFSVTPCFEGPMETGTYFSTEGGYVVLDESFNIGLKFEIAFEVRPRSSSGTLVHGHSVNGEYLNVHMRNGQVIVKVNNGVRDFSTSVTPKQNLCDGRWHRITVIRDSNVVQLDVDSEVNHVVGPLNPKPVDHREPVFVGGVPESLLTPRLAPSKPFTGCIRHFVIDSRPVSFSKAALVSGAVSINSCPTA

human His-laminin-α4 = biological target: T5, human His-laminin-α4 (human, UniProt Q16363 833-1823, limits assumed); experiment: Biacore SPR
T5 construct: Bought His-tagged recombinant protein (R & D Systems); also called Human LAMA4; human His-laminin-α4 (R & D Systems)
T5 sequence: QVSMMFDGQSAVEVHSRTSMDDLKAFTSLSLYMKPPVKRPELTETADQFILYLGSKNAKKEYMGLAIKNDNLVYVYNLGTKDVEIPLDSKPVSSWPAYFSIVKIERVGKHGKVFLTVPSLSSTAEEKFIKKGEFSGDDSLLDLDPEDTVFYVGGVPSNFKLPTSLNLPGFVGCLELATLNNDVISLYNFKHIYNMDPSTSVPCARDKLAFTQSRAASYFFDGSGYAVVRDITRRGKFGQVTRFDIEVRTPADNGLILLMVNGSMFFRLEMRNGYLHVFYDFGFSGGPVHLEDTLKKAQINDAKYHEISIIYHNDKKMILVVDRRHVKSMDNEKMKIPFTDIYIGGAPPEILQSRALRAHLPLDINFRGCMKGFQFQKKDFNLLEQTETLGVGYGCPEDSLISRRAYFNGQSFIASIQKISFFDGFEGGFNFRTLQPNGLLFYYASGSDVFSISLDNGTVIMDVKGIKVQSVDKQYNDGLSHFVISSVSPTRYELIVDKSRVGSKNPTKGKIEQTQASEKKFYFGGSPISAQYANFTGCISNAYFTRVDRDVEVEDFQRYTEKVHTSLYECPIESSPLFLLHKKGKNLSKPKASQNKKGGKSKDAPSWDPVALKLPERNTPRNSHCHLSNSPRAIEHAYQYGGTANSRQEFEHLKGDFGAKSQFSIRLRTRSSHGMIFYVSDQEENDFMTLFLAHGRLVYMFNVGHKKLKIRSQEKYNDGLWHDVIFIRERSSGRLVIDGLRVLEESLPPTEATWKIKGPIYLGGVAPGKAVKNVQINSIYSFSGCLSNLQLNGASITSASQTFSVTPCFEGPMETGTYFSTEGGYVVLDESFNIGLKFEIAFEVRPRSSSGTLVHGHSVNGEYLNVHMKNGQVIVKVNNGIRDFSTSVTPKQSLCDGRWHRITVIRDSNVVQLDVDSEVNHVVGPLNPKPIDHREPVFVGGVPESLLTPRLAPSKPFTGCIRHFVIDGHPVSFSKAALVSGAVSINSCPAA

[3] = biological target: T6, LGde2, human LAMA4 G domain with LG2 deleted, displayed on 293 cells (human, UniProt Q16363 830-1821, limits assumed); experiment: flow cytometry on 293 cells displaying LAMA4 G-domain variants; % binding
T6 construct: pDisplay construct on 293 cells; vector tags and anchor not written here; also called LGde2 (LG13)
T6 sequence: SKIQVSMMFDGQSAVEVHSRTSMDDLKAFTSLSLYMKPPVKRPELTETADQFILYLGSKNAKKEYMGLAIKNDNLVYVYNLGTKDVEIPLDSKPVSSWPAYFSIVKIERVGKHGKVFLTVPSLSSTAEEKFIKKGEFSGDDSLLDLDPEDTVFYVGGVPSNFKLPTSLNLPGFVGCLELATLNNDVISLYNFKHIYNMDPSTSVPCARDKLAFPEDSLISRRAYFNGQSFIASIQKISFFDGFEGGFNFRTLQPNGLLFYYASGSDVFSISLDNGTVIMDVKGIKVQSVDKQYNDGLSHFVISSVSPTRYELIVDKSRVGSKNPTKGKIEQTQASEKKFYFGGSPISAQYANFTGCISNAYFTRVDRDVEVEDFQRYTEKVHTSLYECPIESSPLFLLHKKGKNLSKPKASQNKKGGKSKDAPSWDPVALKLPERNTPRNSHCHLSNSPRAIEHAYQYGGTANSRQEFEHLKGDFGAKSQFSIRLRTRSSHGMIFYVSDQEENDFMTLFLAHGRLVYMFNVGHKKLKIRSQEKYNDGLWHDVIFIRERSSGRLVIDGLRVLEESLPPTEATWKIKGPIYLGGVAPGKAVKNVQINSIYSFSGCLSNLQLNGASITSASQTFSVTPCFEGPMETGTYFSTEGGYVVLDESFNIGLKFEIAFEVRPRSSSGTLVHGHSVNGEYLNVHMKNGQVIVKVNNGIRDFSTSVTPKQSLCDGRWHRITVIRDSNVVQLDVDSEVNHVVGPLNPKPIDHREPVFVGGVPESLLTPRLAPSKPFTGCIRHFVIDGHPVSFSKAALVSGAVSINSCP
From the text: LGde1 has a full-length G domain (i.e., LG1-5) with LG1 deleted, LGde2 has a full-length G domain with LG2 deleted, and LGde3 has a full-length G domain with LG3 deleted. Recombinant MCAM-Fc protein was able to specifically bind 293 cells expressing LAMA4 variants LG1-5, LG1-3, and LGde 1 (LG23), but not 293 cells expressing LAMA 4 variants LG4-5, LGde2 (LG13), or LGde3 (LG12).

Row | Binder | binding result [1] | binding result [2] | binding result (recombinant laminin 411) | Kd (mouse His-laminin-α4) | koff (mouse His-laminin-α4) | kon (mouse His-laminin-α4) | Kd (human His-laminin-α4) | koff (human His-laminin-α4) | kon (human His-laminin-α4) | binding result [3]
1 | B1 | binds | binds | binds | – | – | – | – | – | – | –
2 | B2 | binds | binds | binds | – | – | – | – | – | – | –
3 | B3 | binds | binds | binds | – | – | – | – | – | – | –
4 | B4 | binds | binds | binds | – | – | – | – | – | – | –
5 | B5 | – | – | – | 5.27 nM | 0.0116 s⁻¹ | 2.2e+06 M⁻¹ s⁻¹ | 7.33 nM | 0.0105 s⁻¹ | 1.43e+06 M⁻¹ s⁻¹ | no binding
